# From patent US20050282743A1, “Molecular interactions in cells” (Arbor Vita Corporation, priority 2001, published 2005)
# T1: GST-TIP1 PDZ domain 1 (Table 9 insert) (Homo sapiens (Human)), O14907
# T1 chain: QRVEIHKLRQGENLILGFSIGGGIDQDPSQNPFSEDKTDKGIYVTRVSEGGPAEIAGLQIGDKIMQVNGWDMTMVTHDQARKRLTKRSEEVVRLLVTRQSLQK
# T2: GST-ENIGMA PDZ domain 1 (Homo sapiens (Human)), Q9NR12
# T2 chain: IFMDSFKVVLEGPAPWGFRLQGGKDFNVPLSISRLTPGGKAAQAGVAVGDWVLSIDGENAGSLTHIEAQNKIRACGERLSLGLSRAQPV
# T3: GST-APXL-1 PDZ domain 1 (Homo sapiens (Human)), Q13796
# T3 chain: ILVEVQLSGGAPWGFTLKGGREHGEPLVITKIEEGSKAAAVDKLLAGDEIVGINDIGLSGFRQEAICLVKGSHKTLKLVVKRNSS
# T4: GST-PDZK1 PDZ domain 1 (Homo sapiens (Human)), Q5T2W1
# T4 chain: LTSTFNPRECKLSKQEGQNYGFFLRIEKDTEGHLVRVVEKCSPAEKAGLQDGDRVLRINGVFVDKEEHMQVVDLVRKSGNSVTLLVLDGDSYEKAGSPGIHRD
# T5: GST-PDZK1 PDZ domain 3 (Homo sapiens (Human)), A8MUH7
# T5 chain: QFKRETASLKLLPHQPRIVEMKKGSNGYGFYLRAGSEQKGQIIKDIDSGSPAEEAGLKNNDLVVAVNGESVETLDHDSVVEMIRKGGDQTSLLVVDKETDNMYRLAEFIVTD
# T6: GST-KIAA1719 PDZ domain 1 (Homo sapiens (Human)), Q9C0E4
# T6 chain: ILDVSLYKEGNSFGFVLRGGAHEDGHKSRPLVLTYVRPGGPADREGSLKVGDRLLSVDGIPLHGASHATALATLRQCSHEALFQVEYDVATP
# T7: GST-GRIP 1 PDZ domain 6 (Mus musculus (Mouse)), Q925T6
# T7 chain: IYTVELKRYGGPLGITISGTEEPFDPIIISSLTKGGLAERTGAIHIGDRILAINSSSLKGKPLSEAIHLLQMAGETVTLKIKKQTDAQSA
# T8: GST-prIL16 PDZ domains 1, 2, Q14005
# T8 chain: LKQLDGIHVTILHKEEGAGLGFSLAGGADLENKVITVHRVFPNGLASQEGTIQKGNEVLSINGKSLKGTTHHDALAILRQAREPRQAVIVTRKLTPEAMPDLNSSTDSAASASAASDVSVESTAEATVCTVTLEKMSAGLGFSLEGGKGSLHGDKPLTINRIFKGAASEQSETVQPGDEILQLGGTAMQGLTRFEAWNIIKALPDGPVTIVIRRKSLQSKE
# T9: GST-SIP1 PDZ domain 2 (Homo sapiens (Human)), Q15599
# T9 chain: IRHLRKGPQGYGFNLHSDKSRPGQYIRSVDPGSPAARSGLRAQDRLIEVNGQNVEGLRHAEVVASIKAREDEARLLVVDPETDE
# T10: GST-KIAA1719 PDZ domain 6 (Homo sapiens (Human)), Q9C0E4
# T10 chain: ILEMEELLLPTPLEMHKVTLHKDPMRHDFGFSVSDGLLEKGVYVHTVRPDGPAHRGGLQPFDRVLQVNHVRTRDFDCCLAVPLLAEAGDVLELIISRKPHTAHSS
# T11: GST-GRIP 1 PDZ domain 7 (Homo sapiens (Human)), Q9Y3R0
# T11 chain: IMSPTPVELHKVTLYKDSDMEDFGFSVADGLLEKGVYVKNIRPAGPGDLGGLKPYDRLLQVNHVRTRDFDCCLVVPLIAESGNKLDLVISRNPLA
# T12: GST-MUPP1 PDZ domain 12 (Homo sapiens (Human)), O75970
# T12 chain: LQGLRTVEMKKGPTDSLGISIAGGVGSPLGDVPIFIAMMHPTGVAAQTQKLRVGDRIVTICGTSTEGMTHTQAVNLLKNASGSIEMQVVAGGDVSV
# T13: GST-DLG2 PDZ domain 2 (Homo sapiens (Human)), Q15700
# T13 chain: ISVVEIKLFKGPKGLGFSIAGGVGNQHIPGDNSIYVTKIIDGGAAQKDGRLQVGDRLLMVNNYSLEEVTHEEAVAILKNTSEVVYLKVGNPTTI
# T14: GST-KIAA1719 PDZ domain 4 (Homo sapiens (Human)), Q9C0E4
# T14 chain: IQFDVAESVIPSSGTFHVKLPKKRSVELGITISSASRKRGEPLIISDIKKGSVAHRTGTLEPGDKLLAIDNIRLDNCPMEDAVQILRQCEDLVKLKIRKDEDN
# T15: GST-KIAA0751(L) PDZ domain 1 (Mus musculus (Mouse)), Q9EQZ7
# T15 chain: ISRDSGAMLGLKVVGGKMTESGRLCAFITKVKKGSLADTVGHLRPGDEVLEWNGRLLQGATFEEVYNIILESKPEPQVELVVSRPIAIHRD
# T16: GST-INADL PDZ domain 4 (Homo sapiens (Human)), Q8NI35
# T16 chain: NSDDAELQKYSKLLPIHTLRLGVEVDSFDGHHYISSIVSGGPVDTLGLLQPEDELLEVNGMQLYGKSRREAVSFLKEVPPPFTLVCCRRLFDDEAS
# Legend:
# [1] = target: T1, GST-TIP1 PDZ domain 1 (Table 9 insert) …; test: G assay titration, PDZ 0.5 ug/ml
# [2] = target: T2, GST-ENIGMA PDZ domain 1 (Homo sapiens …); test: G' assay; further: key of the grades not given here
# [3] = target: T3, GST-APXL-1 PDZ domain 1 (Homo sapiens …); test: G assay titration, PDZ 0.5 ug/ml
# [4] = target: T4, GST-PDZK1 PDZ domain 1 (Homo sapiens …); test: G' assay; further: key of the grades not given here
# [5] = target: T5, GST-PDZK1 PDZ domain 3 (Homo sapiens …); test: G' assay; further: key of the grades not given here
# [6] = target: T6, GST-KIAA1719 PDZ domain 1 (Homo sapiens …); test: G' assay; further: key of the grades not given here
# [7] = target: T7, GST-GRIP 1 PDZ domain 6 (Mus musculus …); test: G' assay; further: key of the grades not given here
# [8] = target: T8, GST-prIL16 PDZ domains 1, 2, Q14005; test: G' assay; further: key of the grades not given here
# [9] = target: T9, GST-SIP1 PDZ domain 2 (Homo sapiens …); test: G' assay
# [10] = target: T10, GST-KIAA1719 PDZ domain 6 (Homo sapiens …); test: G' assay
# [11] = target: T11, GST-GRIP 1 PDZ domain 7 (Homo sapiens …); test: G' assay
# [12] = target: T12, GST-MUPP1 PDZ domain 12 (Homo sapiens …); test: G' assay
# [13] = target: GST-DLG1 PDZ domain 1 (Homo sapiens), Q12959; test: G assay titration, PDZ 0.5 ug/ml
# [14] = target: GST-Atrophin-1 Interacting Protein PDZ domain 1 (Rattus norvegicus (Rat)), O88382; test: G assay titration, PDZ 0.5 ug/ml
# Chain of GST-Atrophin-1 Interacting Protein PDZ domain 1 (Rattus norvegicus (Rat)), O88382 (O88382 408-511): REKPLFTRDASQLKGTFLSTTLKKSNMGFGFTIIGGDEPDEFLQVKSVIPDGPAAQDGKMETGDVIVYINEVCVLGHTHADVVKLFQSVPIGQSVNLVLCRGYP
# [15] = target: GST-BAI-1 Associated Protein PDZ domain 3 (Homo sapiens (Human)), Q96QZ7; test: G assay titration, PDZ 0.5 ug/ml
# Chain of GST-BAI-1 Associated Protein PDZ domain 3 (Homo sapiens (Human)), Q96QZ7 (Q96QZ7 other isoform, or with tags, fused parts or gaps): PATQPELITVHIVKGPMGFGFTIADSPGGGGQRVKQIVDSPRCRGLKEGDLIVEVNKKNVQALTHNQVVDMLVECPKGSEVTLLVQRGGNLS
# [16] = target: T13, GST-DLG2 PDZ domain 2 (Homo sapiens …); test: G assay titration, PDZ 0.5 ug/ml
# [17] = target: T14, GST-KIAA1719 PDZ domain 4 (Homo sapiens …); test: G' assay
# [18] = target: T15, GST-KIAA0751(L) PDZ domain 1 (Mus …); test: G' assay
# [19] = target: T16, GST-INADL PDZ domain 4 (Homo sapiens …); test: G' assay
binder,measurement,setting,value
VPGALDYAAFSSALYGESDL (modifications not checked) [a-actinin 2],Kd,[1],1000 nM
same,Classification,[2],5 A450 class
PIPAGGCTFSGIFPTLTSPL (modifications not checked) [KIA 1481],Kd,[3],600 nM
ILNSIQVMRAQMNQIQSVEV (modifications not checked) [ephrin B2],Classification,[4],1 A450 class
same,Classification,[5],1 A450 class
same,Classification,[6],1 A450 class
same,Classification,[7],3 A450 class
same,Classification,[8],2 A450 class
same,Classification,[9],2 A450 class
"ELLQFCRTPNPALKNGQYWV (modifications not checked) [CSPG4 (chondroitin sulfae proteoglycan 4, melanoma-associated)]",Classification,[10],5 A450 class
same,Classification,[11],5 A450 class
same,Classification,[12],1 A450 class
VGTLLLERVIFPSVKIATLV (modifications not checked) [AdenoE4 typ9],Kd,[13],100 nM
same,Kd,[14],20 nM
same,Kd,[15],75 nM
same,Kd,[16],50 nM
HDFRRAFKKILARGDRKRIV (modifications not checked) [alpha-2A Adrenergic receptor],Classification,[17],3 A450 class
same,Classification,[18],3 A450 class
same,Classification,[19],1 A450 class
